Experimental data from publication PMC5821319.

B1: MeV-H genotype A (measles virus envelope hemagglutinin protein): N200D (protein)
parent chain: MSPQRDRINAFYKDNPHPKGSRIVINREHLMIDRPYVLLAVLFVMFLSLIGLLAIAGIRLHRAAIYTAEIHKSLSTNLDVTNSIEHQVKDVLTPLFKIIGDEVGLRTPQRFTDLVKLISDKIKFLNPDREYDFRDLTWCINPPERIKLDYDQYCADVAAEELMNALVNSTLLETRTTNQFLAVSKGNCSGPTTIRGQFSNMSLSLLDLYLGRGYNVSSIVTMTSQGMYGGTYLVEKPNLSSKRSELSQLSMYRVFEVGVIRNPGLGAPVFHMTNYLEQPVSNDLSNCMVALGELKLAALCHGEDSITIPYQGSGKGVSFQLVKLGVWKSPTDMQSWVPLSTDDPVIDRLYLSSHRGVIADNQAKWAVPTTRTDDKLRMETCFQQACKGKIQALCENPEWAPLKDNRIPSYGVLSVDLSLTVELKIKIASGFGPLITHGSGMDLYKSNHNNVYWLTIPPMKNLALGVINTLEWIPRFKVSPYLFTVPIKEAGEDCHAPTYLPAEVDGDVKLSSNLVILPGQDLQYVLATYDTSRVEHAVVYYVYSPSRSFSYFYPFRLPIKGVPIELQVECFTWDQKLWCRHFCVLADSESGGHITHSGMVGMGVSCTVTREDGTNRR
B2: MeV-H genotype A (measles virus envelope hemagglutinin protein): D416N (protein)
parent chain: B1 parent chain

Columns and labels:
[1] = cell surface flow cytometry, mAb BH026, Expi293; conditions: control: unmutated MeV-H genotype A
[2] = Western blot of transfected Vero cell lysates (total); conditions: control: unmutated MeV-H genotype A

| Protein | expression_or_secretion ([1]; glycan lost) | expression_or_secretion ([2]; glycan lost) | expression_or_secretion ([1]; glycan gained) | expression_or_secretion ([2]; glycan gained) |
| --- | --- | --- | --- | --- |
| B1 | decreases | decreases | – | – |
| B2 | – | – | no change | no change |
